Assay results from patent US20180155451A1 (published 2018).

T1: FcγRIIb (human, UniProt P31994 43-217)
T1 construct: extracellular domain; also called FcgRIIb; 2b; not shown: His tag at the C terminus
T1 sequence (looked up): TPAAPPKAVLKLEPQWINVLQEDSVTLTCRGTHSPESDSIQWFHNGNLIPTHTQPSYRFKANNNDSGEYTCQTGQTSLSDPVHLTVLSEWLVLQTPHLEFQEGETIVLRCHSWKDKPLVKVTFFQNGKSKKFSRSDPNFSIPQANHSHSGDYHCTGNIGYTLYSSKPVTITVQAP

T2: FcγRIIb extracellular domain with C-terminal His tag (human, UniProt P31994 43-217)
T2 construct: extracellular domain; also called FcgRIIb; 2b; not shown: His tag at the C terminus
T2 sequence (looked up): T1 sequence (looked up)

B1: GpH7-B3 variant S324_01G/GpL16-k0 (homodimerized antibody, Ho Ab) (antibody, human IgG1, kappa)
heavy: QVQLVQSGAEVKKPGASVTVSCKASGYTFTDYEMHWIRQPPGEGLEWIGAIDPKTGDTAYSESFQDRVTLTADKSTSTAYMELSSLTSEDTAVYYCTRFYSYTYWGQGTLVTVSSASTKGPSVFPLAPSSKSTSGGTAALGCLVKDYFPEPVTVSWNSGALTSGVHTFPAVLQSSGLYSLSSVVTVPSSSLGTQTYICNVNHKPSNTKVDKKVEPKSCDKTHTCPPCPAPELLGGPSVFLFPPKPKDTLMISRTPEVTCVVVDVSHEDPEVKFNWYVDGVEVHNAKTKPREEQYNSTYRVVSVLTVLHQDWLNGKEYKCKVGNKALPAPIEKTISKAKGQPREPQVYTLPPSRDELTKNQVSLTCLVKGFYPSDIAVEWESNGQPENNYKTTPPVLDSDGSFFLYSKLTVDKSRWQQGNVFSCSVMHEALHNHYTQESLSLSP
light: DIVMTQSPLSLPVTPGEPASISCQASESLVHSNRNTYLHWYLQKPGQSPQLLIYKVSNRFSGVPDRFSGSGSGTDFTLKISRVEAEDVGVYYCSQNTHVPPTFGQGTKVEIERTVAAPSVFIFPPSDEQLKSGTASVVCLLNNFYPREAKVQWKVDNALQSGNSQESVTEQDSKDSTYSLSSTLTLSKADYEKHKVYACEVTHQGLSSPVTKSFNRGEC
notes: Mutation in both H chains; also called S324_01G Ho Ab
B2: GpH7-B3 variant S239_18N/GpL16-k0 (homodimerized antibody, Ho Ab) (antibody, human IgG1, kappa)
heavy: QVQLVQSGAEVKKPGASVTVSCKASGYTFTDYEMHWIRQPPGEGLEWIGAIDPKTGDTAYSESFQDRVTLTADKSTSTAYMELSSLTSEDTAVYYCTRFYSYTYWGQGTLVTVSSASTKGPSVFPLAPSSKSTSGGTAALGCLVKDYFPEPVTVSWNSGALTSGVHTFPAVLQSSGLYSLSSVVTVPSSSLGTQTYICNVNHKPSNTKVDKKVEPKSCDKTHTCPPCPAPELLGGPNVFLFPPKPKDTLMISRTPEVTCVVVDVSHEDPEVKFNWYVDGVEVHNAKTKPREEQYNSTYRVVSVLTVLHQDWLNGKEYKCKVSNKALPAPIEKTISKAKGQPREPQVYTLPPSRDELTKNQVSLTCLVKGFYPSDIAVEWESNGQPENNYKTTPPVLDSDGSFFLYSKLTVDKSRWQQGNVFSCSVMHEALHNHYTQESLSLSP
light: B1 light
notes: Mutation in both H chains; also called S239_18N Ho Ab
B3: GpH7-B3 variant S239_10E/GpL16-k0 (homodimerized antibody, Ho Ab) (antibody, human IgG1, kappa)
heavy: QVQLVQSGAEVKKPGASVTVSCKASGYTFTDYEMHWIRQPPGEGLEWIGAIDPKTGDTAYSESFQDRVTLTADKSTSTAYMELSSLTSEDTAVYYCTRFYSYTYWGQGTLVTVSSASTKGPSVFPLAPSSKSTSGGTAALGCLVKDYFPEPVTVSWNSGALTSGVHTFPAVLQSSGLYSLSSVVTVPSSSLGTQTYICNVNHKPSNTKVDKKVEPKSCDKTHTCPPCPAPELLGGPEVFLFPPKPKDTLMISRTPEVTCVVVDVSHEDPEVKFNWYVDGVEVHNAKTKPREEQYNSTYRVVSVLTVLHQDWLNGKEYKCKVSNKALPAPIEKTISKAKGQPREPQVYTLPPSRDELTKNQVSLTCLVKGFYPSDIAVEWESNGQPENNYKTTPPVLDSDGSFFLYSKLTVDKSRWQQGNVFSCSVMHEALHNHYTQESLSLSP
light: B1 light
notes: Mutation in both H chains; also called S239_10E Ho Ab
B4: GpH7-B3 variant S324_14T/GpL16-k0 (homodimerized antibody, Ho Ab) (antibody, human IgG1, kappa)
heavy: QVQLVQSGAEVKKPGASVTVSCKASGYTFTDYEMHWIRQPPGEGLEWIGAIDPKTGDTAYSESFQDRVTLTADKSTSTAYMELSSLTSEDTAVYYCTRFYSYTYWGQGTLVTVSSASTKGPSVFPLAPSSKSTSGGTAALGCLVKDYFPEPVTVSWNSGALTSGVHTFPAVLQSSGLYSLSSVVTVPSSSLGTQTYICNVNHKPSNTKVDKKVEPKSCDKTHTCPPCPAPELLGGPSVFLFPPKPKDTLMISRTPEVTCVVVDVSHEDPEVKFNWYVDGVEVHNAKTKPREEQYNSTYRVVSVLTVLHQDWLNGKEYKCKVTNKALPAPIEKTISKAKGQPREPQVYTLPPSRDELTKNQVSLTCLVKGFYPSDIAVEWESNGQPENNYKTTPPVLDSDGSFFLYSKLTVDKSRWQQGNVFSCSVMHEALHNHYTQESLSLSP
light: B1 light
notes: Mutation in both H chains; also called S324_14T Ho Ab
B5: GpH7-B3 variant S324_20W/GpL16-k0 (homodimerized antibody, Ho Ab) (antibody, human IgG1, kappa)
heavy: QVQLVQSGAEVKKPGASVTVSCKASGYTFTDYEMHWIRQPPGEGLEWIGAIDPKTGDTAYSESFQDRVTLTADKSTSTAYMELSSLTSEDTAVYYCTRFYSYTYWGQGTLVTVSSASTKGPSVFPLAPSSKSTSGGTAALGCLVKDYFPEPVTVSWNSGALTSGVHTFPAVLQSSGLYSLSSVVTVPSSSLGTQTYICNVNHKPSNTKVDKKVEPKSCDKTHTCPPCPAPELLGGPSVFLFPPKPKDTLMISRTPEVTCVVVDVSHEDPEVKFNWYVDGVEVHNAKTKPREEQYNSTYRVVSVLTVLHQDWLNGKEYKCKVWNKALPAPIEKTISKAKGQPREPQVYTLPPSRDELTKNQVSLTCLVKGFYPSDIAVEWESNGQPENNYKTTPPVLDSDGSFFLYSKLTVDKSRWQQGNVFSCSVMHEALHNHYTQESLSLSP
light: B1 light
notes: Mutation in both H chains; also called S324_20W Ho Ab
B6: GpH7-B3 variant S324_06M/GpL16-k0 (homodimerized antibody, Ho Ab) (antibody, human IgG1, kappa)
heavy: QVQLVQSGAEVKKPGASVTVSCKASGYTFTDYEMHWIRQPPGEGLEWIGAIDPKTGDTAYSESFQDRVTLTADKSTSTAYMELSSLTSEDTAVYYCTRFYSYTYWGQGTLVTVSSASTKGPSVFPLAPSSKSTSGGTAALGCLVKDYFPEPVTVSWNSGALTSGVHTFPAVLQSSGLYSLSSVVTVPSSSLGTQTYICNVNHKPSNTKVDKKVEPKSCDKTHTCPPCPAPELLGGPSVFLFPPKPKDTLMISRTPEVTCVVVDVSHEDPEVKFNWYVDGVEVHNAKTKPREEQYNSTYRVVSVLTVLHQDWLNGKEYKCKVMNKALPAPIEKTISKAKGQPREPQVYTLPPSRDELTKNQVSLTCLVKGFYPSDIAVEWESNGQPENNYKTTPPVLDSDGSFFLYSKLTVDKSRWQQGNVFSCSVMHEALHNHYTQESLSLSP
light: B1 light
notes: Mutation in both H chains; also called S324_06M Ho Ab
B7: GpH7-B3 variant S324_09D/GpL16-k0 (homodimerized antibody, Ho Ab) (antibody, human IgG1, kappa)
heavy: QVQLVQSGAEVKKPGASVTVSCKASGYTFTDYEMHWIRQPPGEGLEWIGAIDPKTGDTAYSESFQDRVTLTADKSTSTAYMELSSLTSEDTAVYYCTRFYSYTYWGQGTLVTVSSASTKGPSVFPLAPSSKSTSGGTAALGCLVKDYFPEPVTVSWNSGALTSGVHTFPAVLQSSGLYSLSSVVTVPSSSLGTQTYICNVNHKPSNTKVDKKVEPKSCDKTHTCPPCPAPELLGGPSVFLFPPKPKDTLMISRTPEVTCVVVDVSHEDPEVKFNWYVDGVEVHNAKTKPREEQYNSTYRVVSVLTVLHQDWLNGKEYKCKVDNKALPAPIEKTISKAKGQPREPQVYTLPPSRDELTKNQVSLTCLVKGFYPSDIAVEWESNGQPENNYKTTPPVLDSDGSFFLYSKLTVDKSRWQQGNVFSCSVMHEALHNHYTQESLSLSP
light: B1 light
notes: Mutation in both H chains; also called S324_09D Ho Ab
B8: GpH7-B3 variant S298_03V/GpL16-k0 (homodimerized antibody, Ho Ab) (antibody, human IgG1, kappa)
heavy: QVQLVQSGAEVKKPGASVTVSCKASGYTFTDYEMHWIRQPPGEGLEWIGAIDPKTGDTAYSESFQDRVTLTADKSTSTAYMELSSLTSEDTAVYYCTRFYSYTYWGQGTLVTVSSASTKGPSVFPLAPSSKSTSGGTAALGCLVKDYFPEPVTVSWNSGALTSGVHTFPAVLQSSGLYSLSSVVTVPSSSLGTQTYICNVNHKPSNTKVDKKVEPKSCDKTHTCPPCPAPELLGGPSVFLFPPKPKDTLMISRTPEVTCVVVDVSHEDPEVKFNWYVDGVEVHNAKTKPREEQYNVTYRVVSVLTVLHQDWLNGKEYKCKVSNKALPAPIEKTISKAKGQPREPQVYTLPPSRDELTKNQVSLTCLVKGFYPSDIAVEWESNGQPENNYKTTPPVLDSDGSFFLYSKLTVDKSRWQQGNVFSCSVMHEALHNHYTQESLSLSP
light: B1 light
notes: Mutation in both H chains; also called S298_03V Ho Ab
B9: GpH7-B3 variant S337_01G/GpL16-k0 (homodimerized antibody, Ho Ab) (antibody, human IgG1, kappa)
heavy: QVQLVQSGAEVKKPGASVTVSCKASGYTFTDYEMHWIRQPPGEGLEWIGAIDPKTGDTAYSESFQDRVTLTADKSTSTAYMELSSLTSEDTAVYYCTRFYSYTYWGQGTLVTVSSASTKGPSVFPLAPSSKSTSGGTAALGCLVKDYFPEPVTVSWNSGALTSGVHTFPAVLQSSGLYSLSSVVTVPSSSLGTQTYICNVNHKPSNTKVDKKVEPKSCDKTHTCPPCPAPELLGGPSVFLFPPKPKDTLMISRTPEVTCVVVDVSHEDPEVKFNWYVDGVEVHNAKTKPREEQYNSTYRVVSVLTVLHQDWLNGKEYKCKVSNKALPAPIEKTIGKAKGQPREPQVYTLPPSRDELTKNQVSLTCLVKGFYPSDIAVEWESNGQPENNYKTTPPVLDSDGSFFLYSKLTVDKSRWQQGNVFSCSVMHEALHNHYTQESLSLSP
light: B1 light
notes: Mutation in both H chains; also called S337_01G Ho Ab
B10: GpH7-B3 variant S337_16H/GpL16-k0 (homodimerized antibody, Ho Ab) (antibody, human IgG1, kappa)
heavy: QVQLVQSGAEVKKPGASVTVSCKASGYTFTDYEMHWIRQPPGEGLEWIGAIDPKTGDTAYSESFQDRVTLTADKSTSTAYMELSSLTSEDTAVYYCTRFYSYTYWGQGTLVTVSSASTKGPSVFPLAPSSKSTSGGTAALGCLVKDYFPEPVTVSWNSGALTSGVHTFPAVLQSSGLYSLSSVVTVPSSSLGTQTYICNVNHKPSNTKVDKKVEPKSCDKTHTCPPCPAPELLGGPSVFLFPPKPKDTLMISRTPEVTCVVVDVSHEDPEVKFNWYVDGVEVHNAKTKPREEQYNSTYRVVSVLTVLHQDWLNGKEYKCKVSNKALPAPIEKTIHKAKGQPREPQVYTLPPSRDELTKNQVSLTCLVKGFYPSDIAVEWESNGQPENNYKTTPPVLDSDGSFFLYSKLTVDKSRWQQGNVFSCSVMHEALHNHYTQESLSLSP
light: B1 light
notes: Mutation in both H chains; also called S337_16H Ho Ab
B11: GpH7-A5/GpH7-B3 variant P331_10E/GpL16-k0 (antibody, human IgG1, kappa)
heavy 1: not shown
heavy 2: not shown
light: B1 light
notes: heterodimerized IgG1; alteration in the GpH7-B3 H chain only; also called He Ab
B12: GpH7-A5/GpH7-B3 variant P331_06M/GpL16-k0 (antibody, human IgG1, kappa)
heavy 1: not shown
heavy 2: not shown
light: B1 light
notes: as for B11
B13: GpH7-A5/GpH7-B3 variant A327_18N/GpL16-k0 (antibody, human IgG1, kappa)
heavy 1: not shown
heavy 2: not shown
light: B1 light
notes: as for B11
B14: GpH7-A5/GpH7-B3 variant P331_15Y/GpL16-k0 (antibody, human IgG1, kappa)
heavy 1: not shown
heavy 2: not shown
light: B1 light
notes: as for B11
B15: GpH7-A5/GpH7-B3 variant N325_09D/GpL16-k0 (antibody, human IgG1, kappa)
heavy 1: not shown
heavy 2: not shown
light: B1 light
notes: as for B11
B16: GpH7-A5/GpH7-B3 variant P331_04F/GpL16-k0 (antibody, human IgG1, kappa)
heavy 1: not shown
heavy 2: not shown
light: B1 light
notes: as for B11
B17: GpH7-A5/GpH7-B3 variant S324_06M/GpL16-k0 (antibody, human IgG1, kappa)
heavy 1: not shown
heavy 2: not shown
light: B1 light
notes: as for B11
B18: GpH7-A5/GpH7-B3 variant P331_07I/GpL16-k0 (antibody, human IgG1, kappa)
heavy 1: not shown
heavy 2: not shown
light: B1 light
notes: as for B11
B19: GpH7-A5/GpH7-B3 variant P271_10E/GpL16-k0 (antibody, human IgG1, kappa)
heavy 1: not shown
heavy 2: not shown
light: B1 light
notes: Heterodimerized anti-glypican-3 IgG1; the substitution stands in the GpH7-B3 chain only; also called He Ab
B20: GpH7-A5/GpH7-B3 variant S267_14T/GpL16-k0 (antibody, human IgG1, kappa)
heavy 1: not shown
heavy 2: not shown
light: B1 light
notes: as for B19

molecular target: T3, FcγRIIIa extracellular domain with C-terminal His tag (human, UniProt P08637 17-208); assay: SPR (Biacore), antibody captured on antigen-peptide chip, FcγR analyte, relative binding
T3 construct: extracellular domain; also called 3a; FcgRIIIa
T3 sequence (P08637 17-208): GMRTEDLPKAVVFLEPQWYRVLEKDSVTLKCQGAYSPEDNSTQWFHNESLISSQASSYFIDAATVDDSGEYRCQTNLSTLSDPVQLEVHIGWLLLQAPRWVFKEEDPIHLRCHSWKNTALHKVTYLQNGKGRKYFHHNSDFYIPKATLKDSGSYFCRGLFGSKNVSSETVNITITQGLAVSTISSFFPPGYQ

Ho/Con_3a | Binder
119 % of GpH7-B3/GpL16-k0 (=100) | B1
116 % of GpH7-B3/GpL16-k0 (=100) | B2
252 % of GpH7-B3/GpL16-k0 (=100) | B3
108 % of GpH7-B3/GpL16-k0 (=100) | B4
102 % of GpH7-B3/GpL16-k0 (=100) | B5
114 % of GpH7-B3/GpL16-k0 (=100) | B6
101 % of GpH7-B3/GpL16-k0 (=100) | B7
110 % of GpH7-B3/GpL16-k0 (=100) | B8
108 % of GpH7-B3/GpL16-k0 (=100) | B9
112 % of GpH7-B3/GpL16-k0 (=100) | B10

molecular target: T4, FcγRIa (human, UniProt P12314 16-292); assay: SPR (Biacore), antibody captured, FcγR as analyte; binding as % of GpH7-A5/GpH7-B3/GpL16-k0
T4 construct: extracellular domain; also called FcgRI; 1a; not shown: His tag at the C terminus
T4 sequence (P12314 16-292): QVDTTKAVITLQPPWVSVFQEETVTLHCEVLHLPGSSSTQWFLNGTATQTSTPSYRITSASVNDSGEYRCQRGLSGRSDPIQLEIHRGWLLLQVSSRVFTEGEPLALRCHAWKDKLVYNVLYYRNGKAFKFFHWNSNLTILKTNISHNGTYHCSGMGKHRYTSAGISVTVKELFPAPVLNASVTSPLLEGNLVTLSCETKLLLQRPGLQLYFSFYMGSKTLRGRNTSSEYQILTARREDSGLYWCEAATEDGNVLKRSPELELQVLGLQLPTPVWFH

He/Con_1a | Binder
95 % of control | B11
93.6 % of control | B12
97.7 % of control | B13
96 % of control | B14
99.9 % of control | B15
95.5 % of control | B16
99.2 % of control | B17
93.4 % of control | B18

molecular target: T1, FcγRIIb; assay: as above

He/Con_2b | Binder
116 % of control | B11
102 % of control | B12
113 % of control | B13
114 % of control | B14
124 % of control | B15
110 % of control | B16
112 % of control | B17
114 % of control | B18

molecular target: T5, FcγRIIIa extracellular domain with C-terminal His tag (human, UniProt P08637 17-208); assay: SPR (Biacore), antibody captured on antigen peptide chip, FcγR as analyte; relative binding amount
T5 construct: extracellular domain; also called FcgRIIIa; 3a; not shown: His tag at the C terminus
Description: (§1) Analysis of interaction between objective antibody and the FcγR was carried out using Biacore T100 (GE Healthcare). HBS-EP+ (GE Healthcare) was used as the running buffer, and the measurement temperature was set to 25° C. Chips produced by immobilizing the antigen peptide by the amine coupling method to a Series S Sencor Chip CM5 (GE Healthcare), or alternatively, chips produced by allowing preliminarily biotinylated antigen peptides to interact with and immobilize onto a Series S Sensor Chip SA (certified) (GE Healthcare) were used. Antibodies of interest were captured onto an antigen peptide-immobilized chip, and allowed to interact to each FcγR diluted with running buffer. To regenerate and repeatedly use the chip, the antibodies captured on the chip were washed off by reacting 10 mM glycine-HCl, pH 1.5.
(§2) The FcγR-binding activity of each antibody was assessed primarily using as an indicator the FcγR-binding activity and dissociation constant for FcγR.
T5 sequence (P08637 17-208): as the sequence (P08637 17-208) above

He/Con_3a | Binder
93.6 % of GpH7-A5/GpH7-B3/GpL16-k0 (=100) | B19
45.6 % of GpH7-A5/GpH7-B3/GpL16-k0 (=100) | B20

molecular target: T2, FcγRIIb extracellular domain with …; assay: as above
Description: as §1, §2

He/Con_2b | Binder
109 % of GpH7-A5/GpH7-B3/GpL16-k0 (=100) | B19
104 % of GpH7-A5/GpH7-B3/GpL16-k0 (=100) | B20
